Reference: patent US11667697 (VANDERBILT UNIVERSITY, dated 2023)

Legend:
VACV H3 protein [1] = target: T1, VACV H3 protein (vaccinia virus, UniProt P07240 1-278); experiment: cell-based or functional assay
T1 sequence: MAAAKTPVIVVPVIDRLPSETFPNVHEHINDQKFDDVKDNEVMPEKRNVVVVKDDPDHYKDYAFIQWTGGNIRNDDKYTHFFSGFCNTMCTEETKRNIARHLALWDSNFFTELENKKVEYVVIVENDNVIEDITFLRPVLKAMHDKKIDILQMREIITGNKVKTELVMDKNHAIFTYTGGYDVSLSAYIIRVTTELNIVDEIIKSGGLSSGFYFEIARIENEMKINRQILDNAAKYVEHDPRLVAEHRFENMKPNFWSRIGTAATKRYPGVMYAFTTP

VACV H3 protein [2] = target: T1, VACV H3 protein; experiment: lysate ELISA
VACV H3 protein [3] = target: T1, VACV H3 protein; experiment: purified antigen ELISA
VACV L1 protein [4] = target: T2, VACV L1 protein (vaccinia virus, UniProt P07612 1-185); experiment: cell-based or functional assay
T2 sequence: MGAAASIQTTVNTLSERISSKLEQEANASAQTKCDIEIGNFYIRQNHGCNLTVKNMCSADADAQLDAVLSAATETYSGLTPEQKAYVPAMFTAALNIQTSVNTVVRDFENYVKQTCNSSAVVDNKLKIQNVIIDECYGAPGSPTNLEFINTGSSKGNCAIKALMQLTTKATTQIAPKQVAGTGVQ

VACV L1 protein [5] = target: T2, VACV L1 protein; experiment: purified antigen ELISA
VACV A33 protein [6] = target: T3, VACV A33 protein (vaccinia virus, UniProt P68617 58-185); experiment: cell-based or functional assay
VACV A33 protein [7] = target: T3, VACV A33 protein; experiment: lysate ELISA
VACV A33 protein [8] = target: T3, VACV A33 protein; experiment: purified antigen ELISA
VACV B5 protein [9] = target: T4, VACV B5 protein (vaccinia virus, UniProt Q01227 20-275); experiment: cell-based or functional assay
VACV B5 protein [10] = target: T4, VACV B5 protein; experiment: lysate ELISA
VACV B5 protein [11] = target: T4, VACV B5 protein; experiment: purified antigen ELISA

B1: VACV-314 (antibody, V domains shown)
VH: QVQLVQSGPGLVKPSETLSLTCTVSGGSISSYYWSWIRQPPGKGLEYIGHIYYSGGTKYNPSLRSRVTISVDTSKNQFSLKLTSVTAADTAVYYCARLAGRKPDADSWGQGTLVTVSS
VL: QPVLTQEPSLTVSPGGTVTLTCASSTGAVTSGFFPNWLQQKPGQAPRALIYSTNNKHSWTPARFSGSLLGGKAALTLSGVQPEDEAEYYCLLYYGGVVVFGGGTKLTVL
notes: human IgG3, anti-H3
For B1, the “PRNT Emax, VACV MV+C'” value (VACV H3 protein [1]) was 74%, the “PRNT IC50, VACV MV+C'” value (VACV H3 protein [1]) was 0.1 µg/mL and the EC50 (VACV H3 protein [2]) was 0.003 µg/mL. It also gave an EC50 (VACV H3 protein [3]) of 0.1 µg/mL.

B2: MPXV-76 (antibody, V domains shown)
VH: EVQLVESGGGLVKPGESLKISCAASGFSFNNAWMNWVRQAPGKGLEWVGRIKTHADGGTTDYAAPVTGRFTISRDDSKNTLSLQMSSLKTEDTAVYYCTTSFTFPRRIFAYWGQGTLV
VL: EIVLTQSPATLSLSPGERATLSCRASQSVSSYLAWYQQKPGQAPRLLIYDTSNRATGIPARFSGSGSGTDFTLTISSLEPEDLAVYYCQLRNSWPPTFGPGTKVDIK
notes: human IgG1, anti-H3
With B2 the EC50 (VACV H3 protein [2]) was 0.008 µg/mL.

B3: VACV-33 (antibody, V domains shown)
VH: QLQLQESGPGLVKPSETLSLTCTVSGGSISSGGYYWGWIRQPPGKGLEWIASIYYSGSTYYNPSLKSRVTISVDTSKTQFSLKLSSVTAADTAVYYCARQSSSTGGFHYWGQGTLVTVSS
VL: QSVLTQPPSVSGAPGQRVTISCTGSSSNIGAGYDVHWYQHLPGTAPKLLIYGNSNRPSGVPDRFSGSKSGTSASLAITGLQAEDEANYYCQSYDSSLSGREVFGGGTQLTVL
notes: human IgG1, anti-L1
With B3 the “PRNT Emax, VACV MV” value (VACV L1 protein [4]) was 56%, the “PRNT Emax, VACV MV+C'” value (VACV L1 protein [4]) was 71% and the “PRNT IC50, VACV MV” value (VACV L1 protein [4]) was 0.3 µg/mL. For the same binder, the “PRNT IC50, VACV MV+C'” value (VACV L1 protein [4]) was 0.7 µg/mL and the EC50 (VACV L1 protein [5]) was 0.02 µg/mL.

B4: MPXV-51 (antibody, V domains shown)
VH: QLQLQESGPGLVKPSETLSLSCTVSGGSINSRTYYWGWIRQPPGKGPEWIGTVFHNVSTLYTSSLRSRVTISVDTSKNRFSLKLTSVTAADTAVYFCGRLTPRNLFRGTLVRWVDPWGQGILVTVSS
VL: EIVLAQSPGTLSLSPGERATLSCRASHNLNSNYLAWYQQKPGQAPRLLIYGASSRATGIPDRFTGSGSGTDFTLTISRLEPEDFAVYYCQQYAGSLTFGGGTKVDIK
notes: human IgG1, anti-A33
In the case of B4, the “PRNT Emax, VACV EV+C'” value (VACV A33 protein [6]) is reported as 50%, the “PRNT IC50, VACV EV+C'” value (VACV A33 protein [6]) is reported as 0.1 µg/mL and the EC50 (VACV A33 protein [7]) is reported as 0.05 µg/mL. For the same binder, the EC50 (VACV A33 protein [8]) was 0.04 µg/mL.

B5: VACV-80 (antibody, V domains shown)
VH: EVQLVESGGGLVQPGESLKISCAATGFTFSSYWMHWVRQAPGKGLVWVSGINSDGSSTSYADSVKGRFTIARDNAKGTLYLQMNSLRAEDTAVYYCARVGAVRIAAAAPDYWGQGTLVTVSS
VL: not shown
notes: human IgG1, anti-A33
B5 was tested, and the EC50 (VACV A33 protein [7]) was > 69 µg/mL and the EC50 (VACV A33 protein [8]) was 0.065 µg/mL.

B6: VACV-315 (antibody, V domains shown)
VH: EVQLLESGGGLVQPGGSLKLSCAASGFIFSNYAMGWVRQAPGKGLEWVSALSASDGVTSYADSVKGRFTISRDNSKNTMYLQMNRLRTEDTAIYFCAKGRARVNNIYRYFDHWGQGTLVTVSS
VL: QSVLTQPASVSGSPGQSITISCTGTSSDVGAYTFVSWYQHHPGKAPKLIIYEVSNRPSGVSDRFSGSKSGNTASLTISGLQAEDEADYYCNSYTTTSPWVFGGGTQLTVL
notes: human IgG1, anti-H3
In the case of B6, the “PRNT Emax, VACV MV+C'” value (VACV H3 protein [1]) is reported as 72%, the “PRNT IC50, VACV MV+C'” value (VACV H3 protein [1]) is reported as 2.2 µg/mL and the EC50 (VACV H3 protein [2]) is reported as 0.002 µg/mL. The EC50 (VACV H3 protein [3]) was 0.2 µg/mL.

B7: MPXV-79 (antibody, V domains shown)
VH: QVQLVQSGAEVKKPGASVKVSCKASGYSFRSNGISWVRQAPGQGFEWLGWIAAYNGDTKYVQKFQGRLTMTTDTSTDTAYMELWSLRSDDTAVYYCARDPKLGRKGSAFDIWGQGTLVIVSS
VL: EIVLTQSPATLSLSPGGRATLSCRASQSVGNYLTWYQQKPGQAPRLLIFDGSTRATGIPARFSGSGSGTDFTLTISSLEPEDFAVYYCLQRSDLYTFGQGTKVDIK
notes: human IgG1, anti-H3
For B7, the “PRNT Emax, VACV MV+C'” value (VACV H3 protein [1]) was 62%, the “PRNT IC50, VACV MV+C'” value (VACV H3 protein [1]) was 4.7 µg/mL and the EC50 (VACV H3 protein [2]) was 0.004 µg/mL. It also gave an EC50 (VACV H3 protein [3]) of 0.06 µg/mL.

B8: MPXV-25 (antibody, V domains shown)
V domain 1: QVQLVESGGGVVQPGRSLKISCAASGFTFSDSGLHWVRQAPGKGLECVAFIWYDGSTKYYADSVKGRFTISRDNSRNTLYLQMKSLRAEDTAVYYCARELGYCSGGTCYSMGAFDIWGQGTLVTVSQ
V domain 2: QSVLTQPASVSGSPGQSITISCTGTSSDVGSYNLVSWYQQHPGKAPKLMIYEVSKRPSGVSNRFSGSKSDNTASLTISGLQAEDEADYYCCSYVGSSTSVFGGGTQVTVL
notes: human IgG1, anti-B5
With B8 the “PRNT Emax, VACV EV+C'” value (VACV B5 protein [9]) was 77%, the “PRNT IC50, VACV EV+C'” value (VACV B5 protein [9]) was 0.02 µg/mL and the EC50 (VACV B5 protein [10]) was 0.066 µg/mL. It also gave an EC50 (VACV B5 protein [11]) of 0.19 µg/mL.
